# T1: hPR (Homo sapiens, UniProt P06401)
# T1 construct: expressed in transfected cells; host or cells: HeLa
# T1 sequence (P06401 1-933): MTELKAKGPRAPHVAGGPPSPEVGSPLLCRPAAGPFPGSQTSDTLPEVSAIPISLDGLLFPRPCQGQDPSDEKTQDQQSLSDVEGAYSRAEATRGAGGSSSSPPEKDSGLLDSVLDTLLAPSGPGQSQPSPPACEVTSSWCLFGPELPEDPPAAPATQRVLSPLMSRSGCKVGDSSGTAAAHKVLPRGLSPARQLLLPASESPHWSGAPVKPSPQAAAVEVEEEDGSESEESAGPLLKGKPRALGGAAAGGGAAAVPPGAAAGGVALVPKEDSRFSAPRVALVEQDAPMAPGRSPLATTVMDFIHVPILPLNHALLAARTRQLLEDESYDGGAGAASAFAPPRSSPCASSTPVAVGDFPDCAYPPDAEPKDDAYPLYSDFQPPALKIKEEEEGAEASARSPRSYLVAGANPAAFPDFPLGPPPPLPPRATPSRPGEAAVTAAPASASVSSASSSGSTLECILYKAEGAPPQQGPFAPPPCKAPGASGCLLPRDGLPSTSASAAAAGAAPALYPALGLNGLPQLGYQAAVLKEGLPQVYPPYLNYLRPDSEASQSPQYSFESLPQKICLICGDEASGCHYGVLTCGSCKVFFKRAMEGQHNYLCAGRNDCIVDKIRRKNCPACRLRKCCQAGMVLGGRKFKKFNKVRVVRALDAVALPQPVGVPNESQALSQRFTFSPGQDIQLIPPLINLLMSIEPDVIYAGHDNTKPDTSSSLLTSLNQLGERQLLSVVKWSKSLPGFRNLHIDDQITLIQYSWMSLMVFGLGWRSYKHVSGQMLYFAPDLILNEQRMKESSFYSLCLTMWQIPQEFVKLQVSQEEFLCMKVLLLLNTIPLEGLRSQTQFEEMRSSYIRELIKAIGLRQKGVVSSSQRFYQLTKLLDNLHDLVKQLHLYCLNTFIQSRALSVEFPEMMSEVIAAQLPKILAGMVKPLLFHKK
# B1: steroid receptor coactivator-one (SRC-1), full-length (protein)
# chain: MSIPRVNPSVNPSISPAHGVARSSTLPPSNSNMVSTRINRQQSSDLHSSSHSNSSNSQGSFGCSPGSQIVANVALNKGQASSQSSKPSLNLNNPPMEGTGISLAQFMSPRRQVTSGLATRPRMPNNSFPPNISTLSSPVGMTSSACNNNNRSYSNIPVTSLQGMNEGPNNSVGFSASSPVLRQMSSQNSPSRLNIQPAKAESKDNKEIASTLNEMIQSDNSSSDGKPLDSGLLHNNDRLSDGDSKYSQTSHKLVQLLTTTAEQQLRHADIDTSCKDVLSCTGTSNSASANSSGGSCPSSHSSLTARHKILHRLLQEGSPSDITTLSVEPDKKDSASTSVSVTGQVQGNSSIKLELDASKKKESKDHQLLRYLLDKDEKDLRSTPNLSLDDVKVKVEKKEQMDPCNTNPTPMTKATPEEIKLEAQSQFTADLDQFDQLLPTLEKAAQLPGLCETDRMDGAVTSVTIKSEILPASLQSATARPTSRLNRLPELELEAIDNQFGQPGTGDQIPWTNNTVTAINQSKSEDQCISSQLDELLCPPTTVEGRNDEKALLEQLVSFLSGKDETELAELDRALGIDKLVQGGGLDVLSERFPPQQATPPLIMEERPNLYSQPYSSPFPTANLPSPFQGMVRQKPSLGTMPVQVTPPRGAFSPGMGMQPRQTLNRPPAAPNQLRLQLQQRLQGQQQLIHQNRQAILNQFAATAPVGINMRSGMQQQITPQPPLNAQMLAQRQRELYSQQHRQRQLIQQQRAMLMRQQSFGNNLPPSSGLPVQTGNPRLPQGAPQQFPYPPNYGTNPGTPPASTSPFSQLAANPEASLANRNSMVSRGMTGNIGGQFGTGINPQMQQNVFQYPGAGMVPQGEANFAPSLSPGSSMVPMPIPPPQSSLLQQTPPASGYQSPDMKAWQQGAIGNNNVFSQAVQNQPTPAQPGVYNNMSITVSMAGGNTNVQNMNPMMAQMQMSSLQMPGMNTVCPEQINDPALRHTGLYCNQLSSTDLLKTEADGTQQVQQVQVFADVQCTVNLVGGDPYLNQPGPLGTQKPTSGPQTPQAQQKSLLQQLLTE
# Key:
# [1] = target: T1, hPR; experiment: Transient transfection CAT reporter assay, hPRB with PRE2-TATA-CAT in HeLa cells; format: cell-based
# Method: (§1) Lipofectin (GibcoBRL) was selected for transfection of Hela cells.
# To further investigate the role of SRC-1 in receptor transactivation of target gene expression, transient transfection assays were carried out in mammalian cell lines. HeLa cells were cotransfected with mammalian expression vectors for full-length SRC-1 and hPRB together with a plasmid containing two copies of the progesterone-responsive DNA element (PRE) inserted in front of the TATA box of the E1b adenovirus, linked to the chloramphenicol acetyl transferase (CAT) reporter gene, PRE2-TATA-CAT.
# Cells were harvested 42 h after transfection and the chloramphenicol acetyl transferase (CAT) activity determined using 8 μg of protein extract.
# [2] = test system: CREB; experiment: CAT reporter assay CREB/CRE-tk-CAT in HeLa cells, with and without forskolin; format: cell-based; details: without and with 1 μM forskolin
# Method: as §1
# The CAT activity of the reporter was determined.
molecule,measurement,setting,value
B1,effect on reporter construct activity in the absence of PR binding site,"[1]; ERE2-TATA-CAT reporter with hPRB, with or without ligand",no effect
same,effect on PR transcriptional activity,"[1]; HeLa cells, 3 μg SRC-1, R5020 2×10^−8 M, PRE2-TATA-CAT",enhance
same,effect on RU486-antagonized receptor transcriptional activity,"[1]; HeLa cells, SRC-1 coexpressed, R5020 plus RU486",unable to augment and/or recover to any extent
same,induction over the hormone-induced receptor activity,"[1]; HeLa cells, full-length SRC-1 cDNA (3 μg) coexpressed with hPR, 2×10^−8 M R5020, mean of seven experiments ± SEM",14.0±3.3 fold
same,activity of ligand-free hPR on the reporter,"[1]; HeLa cells, no hormone, in the absence or presence of SRC-1",minimal activity
same,enhancement of hormone-induced transcriptional activity,"[1]; coexpression of SRC-1 with receptor in mammalian cells, summary statements",> 10 fold
same,effect on basal and forskolin-stimulated transcriptional activities of CREB,[2],did not affect
